# Measurements published in PMC6632053 (2019).
# Bridge positions count the residues as written; N and C are the ends. Square brackets hold non-standard residues; d marks the D form. Primed or numbered codes have the meaning given here. R8 = C=CCCCCCC[C@@](C)(N)C(=O)O; S5 = C=CCCC[C@](C)(N)C(=O)O; Cba′ = not defined here
# B1: MP-292 (peptide)
# chain: Ac-LTF[R8]EYWQL[Cba′][S5]SAA-NH2
# modifications: staple 4-11; reading uncertain
# Columns and labels:
# human Mdm2 (1–125) = human Mdm2 (1–125) (human); experiment: ITC
# human Mdm2 (1–125) (human), sequence (chain, as listed by the source): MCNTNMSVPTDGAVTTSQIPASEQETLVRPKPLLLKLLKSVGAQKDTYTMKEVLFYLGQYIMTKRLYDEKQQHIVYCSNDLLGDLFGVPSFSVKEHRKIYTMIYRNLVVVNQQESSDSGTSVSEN
# [1] = biological target: site-specific mono-biotinylated Mdm2 (human, biotin (site-specific, mono, by sortase-mediated ligation; site not stated)); experiment: SPR
# site-specific mono-biotinylated Mdm2 (human, biotin (site-specific, mono, by sortase-mediated ligation; site not stated)), sequence (chain, as listed by the source): as above
binder,measurement,setting,value
B1,Kd,human Mdm2 (1–125),< 20 nM
same,Kd,[1],1.4 nM
